{"source": "patent US20070022484A1", "about": "(published 2007)", "target": "C-terminal sRL91 (N-terminal SH2 domain SH2n of p85 subunit of bovine phosphatidylinositol 3-kinase fused … (bovine (SH2n part)))", "sequence (chain, as listed by the source limits assumed)": "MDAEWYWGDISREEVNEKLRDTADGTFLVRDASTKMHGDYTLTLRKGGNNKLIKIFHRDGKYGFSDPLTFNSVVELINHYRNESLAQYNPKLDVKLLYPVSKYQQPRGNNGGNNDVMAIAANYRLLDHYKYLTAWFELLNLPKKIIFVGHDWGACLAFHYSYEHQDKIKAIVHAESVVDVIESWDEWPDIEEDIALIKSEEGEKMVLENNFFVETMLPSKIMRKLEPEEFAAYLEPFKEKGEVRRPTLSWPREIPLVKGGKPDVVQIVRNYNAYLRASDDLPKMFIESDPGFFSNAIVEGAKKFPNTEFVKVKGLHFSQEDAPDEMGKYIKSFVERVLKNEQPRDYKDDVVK", "test": "cell-based or functional assay", "data": [{"binder": "N-terminal sRL91 (N-split Renilla luciferase hRLn, split between Ser91 and Tyr92, fused through a linker to Y941 peptide, with Myc epitope) (other, not shown: small tags and cut ends, the 941-tyrosine residue of the Y941 peptide is phosphorylated by the insulin receptor upon insulin stimulation) MTSKVYDPEQRKRMITGPQWWARCKQMNVLDSFINYYDSEKHAENAVIFLHGNAASSYLWRHVVPHIEPVARCIIPDLIGMGKSGKSGNGSCLSLASNNGNGRNGASLETEEAYMKMDLGPG", "values": [{"measurement": "luminescence activity with 10^-7 M insulin against its absence (split Renilla luciferase complementation, CHO-HIR cells expressing sRL91)", "value": 25, "unit": "fold"}]}]}
